Reference: patent publication US20240100134

Columns and labels:
[1] = test system: recombinant plasminogen-linker-Fc fusion (human plasminogen, QA linker GQAGQAS, Fc)
[2] = test system: recombinant human plasminogen (not fused to Fc, wild-type)
Chain of recombinant human plasminogen (not fused to Fc, wild-type) (chain, as listed by the source): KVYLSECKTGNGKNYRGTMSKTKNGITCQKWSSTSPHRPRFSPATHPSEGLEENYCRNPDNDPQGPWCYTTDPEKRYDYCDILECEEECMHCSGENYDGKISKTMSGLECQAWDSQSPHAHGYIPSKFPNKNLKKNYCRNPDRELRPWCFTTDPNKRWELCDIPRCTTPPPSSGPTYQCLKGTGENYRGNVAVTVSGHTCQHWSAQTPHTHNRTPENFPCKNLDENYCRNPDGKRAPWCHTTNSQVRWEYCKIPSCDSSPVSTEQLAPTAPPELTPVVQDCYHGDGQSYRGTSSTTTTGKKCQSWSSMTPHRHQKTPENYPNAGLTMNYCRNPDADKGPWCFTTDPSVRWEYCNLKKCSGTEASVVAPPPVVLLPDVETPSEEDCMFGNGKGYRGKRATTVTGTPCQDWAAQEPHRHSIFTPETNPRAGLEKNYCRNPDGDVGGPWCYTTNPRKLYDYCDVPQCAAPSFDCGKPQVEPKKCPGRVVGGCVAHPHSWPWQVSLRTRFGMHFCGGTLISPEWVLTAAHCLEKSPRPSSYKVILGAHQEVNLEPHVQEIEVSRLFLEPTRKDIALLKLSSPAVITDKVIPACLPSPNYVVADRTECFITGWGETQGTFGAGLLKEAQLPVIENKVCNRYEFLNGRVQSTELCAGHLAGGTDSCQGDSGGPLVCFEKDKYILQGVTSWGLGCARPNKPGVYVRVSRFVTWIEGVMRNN

Chain of recombinant plasminogen-linker-Fc fusion (human plasminogen, QA linker GQAGQAS, Fc) (chain, as listed by the source): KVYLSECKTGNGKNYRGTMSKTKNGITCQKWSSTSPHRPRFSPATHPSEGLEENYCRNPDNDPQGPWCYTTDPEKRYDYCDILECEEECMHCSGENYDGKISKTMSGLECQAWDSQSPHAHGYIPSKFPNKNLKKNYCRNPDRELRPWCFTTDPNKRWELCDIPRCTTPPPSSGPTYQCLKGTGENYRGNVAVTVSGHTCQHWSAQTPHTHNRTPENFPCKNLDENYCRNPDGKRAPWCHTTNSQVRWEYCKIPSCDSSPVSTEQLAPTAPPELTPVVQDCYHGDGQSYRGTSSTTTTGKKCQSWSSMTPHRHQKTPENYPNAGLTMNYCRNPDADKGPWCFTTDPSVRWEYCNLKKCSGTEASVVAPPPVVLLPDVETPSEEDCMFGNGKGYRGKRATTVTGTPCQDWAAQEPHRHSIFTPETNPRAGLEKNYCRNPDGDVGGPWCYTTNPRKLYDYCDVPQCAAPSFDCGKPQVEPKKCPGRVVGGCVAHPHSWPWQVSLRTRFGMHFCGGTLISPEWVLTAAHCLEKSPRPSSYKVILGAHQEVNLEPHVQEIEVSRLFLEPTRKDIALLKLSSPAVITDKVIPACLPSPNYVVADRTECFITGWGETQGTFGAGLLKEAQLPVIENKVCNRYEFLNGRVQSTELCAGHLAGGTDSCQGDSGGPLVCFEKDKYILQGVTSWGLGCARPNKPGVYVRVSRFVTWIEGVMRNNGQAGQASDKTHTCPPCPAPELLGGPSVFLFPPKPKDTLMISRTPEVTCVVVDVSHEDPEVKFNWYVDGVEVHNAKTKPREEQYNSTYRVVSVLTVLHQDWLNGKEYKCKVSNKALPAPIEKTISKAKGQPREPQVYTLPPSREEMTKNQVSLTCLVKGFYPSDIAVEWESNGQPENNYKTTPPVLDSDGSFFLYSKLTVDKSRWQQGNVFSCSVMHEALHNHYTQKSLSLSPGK

## urokinase-type plasminogen activator
[1]
  Michelis-Menten analysis of activation (KM and Vmax), 10 mM EACA: the kinetics of rPlg and rPlg-Fc activation are similar (as indicated by the KM and Vmax)
  activation measured by the hydrolysis of plasmin fluorogenic substrate H-Ala-Phe-Lys-AMC: In the presence of tPA or uPA, comparable hydrolytic activity for rPlg and rPlg-Fc is observed
[2]
  Michelis-Menten analysis of activation (KM and Vmax), 10 mM EACA: the kinetics of rPlg and rPlg-Fc activation are similar (as indicated by the KM and Vmax)
  activation measured by the hydrolysis of plasmin fluorogenic substrate H-Ala-Phe-Lys-AMC: In the presence of tPA or uPA, comparable hydrolytic activity for rPlg and rPlg-Fc is observed
